# Reference: patent US20050197296A1, “Agents for preventing and treating thrombocytopenia” (CHUGAI SEIYAKU KABUSHIKI KAISHA, priority 1996, published 2005)
# What was measured:
# platelet count [1] = assay: Test for daily administration to rabbit (platelet increasing action); assay type: in vivo, Japanese albino rabbits JW/CSK; conditions: 200 μg/kg subcutaneous daily
# Procedure: Six 12-15 week old male Japanese albino rabbits JW/CSK were used in the experiment. The animals were individually kept in aluminum rabbit bracket cages Rb-1 (350^w×500^d×350^h mm) in a vavarium in a specific pathogen-free environment under the following conditions: temperature, 24±2° C.; humidity, 50±10%; illumination, light turned on at 5:00 and turned off at 19:00; ventilation, 15 changes/hr. Each animal was supplied with 120 g of a radiation-sterilized feed for rabbits RM (purchased from Funahashi Farm) per day. The animals were also allowed to drink to tap water ad libitum from an automatic water feeder.
# Human PTH(1-84) was administered in a volume of 2 mL/vial at a concentration of 200 μg/mL. A solvent was also supplied in a volume of 2 mL/vial. Both the drug and the control were stored at −135° C. until use.
# PTH (200 μg/kg) was administered to the rabbits subcutaneously at the back of their neck for 13 consecutive days. The solvent was similarly administered in the same volume as the dose of a rh-PTH solution calculated from their body weight.
# Blood samples (0.5 mL) were withdrawn from the rabbits through the lateral auricular vein before the administration and on days 2, 6, 9 and 13 during the administration period. […]
# platelet counts = assay: Test for single-dose administration to mouse (platelet increasing action); assay type: in vivo, C57B1/6N mice; conditions: single dose 10 μg/kg through the tail vein, 6 and 9 h after the administration
# Procedure: Nine-week old male C57B1/6N mice as purchased from Japan Charles River Co. Ltd. were used in the experiment.
# Human PTH(1-84) was dissolved in a citrate buffer (pH 5; containing 0.05% of Tween 80) at final concentrations of 1, 0.2 and 0.04 ˜g/mL so as to prepare the drug solutions to be administered.
# Each of the thus prepared drug solutions and a control (citrate buffer) was administered to 15 mice through the tail vein in a volume of 10 mL/kg. […] The administration was initiated at 10 a.m.
# After 3, 6 and 9 hours of the administration, five mice were picked up at random from each group of animals and blood samples were withdrawn through the orbital vein. At 10 a.m. on the same day, separate blood samples were taken from untreated mice (four in number) to obtain the preadministration value. Peripheral corpuscle counts were obtained with an automatic corpuscle counter F-800 (TOA MEDICAL ELECTRONICS CO., LTD
# platelet count [2] = assay: Test for daily administration to mouse (platelet increasing action); assay type: in vivo, C57B1/6N mice; conditions: subcutaneous once a day
# Procedure: Nine-week old male C57B1/6N mice as purchased from Japan Charles River Co., Ltd. were used in the experiment.
# Drug solutions to be administered were prepared basically by the same procedure as in Example 1 to give drug concentrations of 5, 20 and 80 μg/mL.
# The mice under test were divided into four groups, which were administered subcutaneously with the three drug solutions and a control (citrate buffer) once a day in a volume of 10 mL/kg. […] The administration was initiated at 10 a.m.
# On days 5, 7 and 9 after the start of administration, five or six mice were picked up at random from each group of animals and blood samples were withdrawn through the orbital vein. The sampling of blood was timed to occur 24 h of the final administration. Separate blood samples were taken from untreated mice (five in number) to obtain the value for normal mouse. Peripheral corpuscle counts were obtained with an automatic corpuscle counter F-800(TOA MEDICAL ELECTRONICS CO., LTD.).
# platelet count [3] = assay: Effectiveness of PTH derivative, daily administration to mouse; assay type: in vivo, C57B1/6N mice; conditions: 200 μg/kg subcutaneous once a day for six days, blood 24 h after final administration
# Procedure: Ten-week old male C57B1/6N mice as purchased from Japan Charles River Co., Ltd. were used in the experiment.
# Drug solutions to be administered were prepared basically from human PTH(1-84) and human PTH(1-34) by the same procedure as in Example 1 to give a drug concentration of 20 μg/mL.
# Eighteen mice were divided into three groups, which were administered subcutaneously with the two drug solutions and a control (citrate buffer) for six days on a once-a-day basis in a volume of 10 mL/kg. […] The administration was initiated at 10 a.m.
# After 24 h of the final administration, a blood sample was withdrawn from each mouse through the orbital vein. Peripheral corpuscle counts were obtained with an automatic corpuscle counter F-800 (TOA MEDICAL ELECTRONICS CO., LTD).
# [4] = system: CFU-GM (precursor cells of granulocytes and macrophages); conditions: literature report, J. Clin. Invest. Vol. 67, 1263-1269:1981; cited from earlier work
# [5] = system: BFU-E (precursor cells of erythrocytes); conditions: literature report, J. Clin. Invest. Vol. 67, 1263-1269:1981; cited from earlier work
Molecule,platelet count relative to the initial value (platelet count [1]; day 2 until day 6),platelet count relative to the initial level (platelet count [1]; day 13),platelet counts versus control (platelet counts),"platelet count (platelet count [2]; 200 and 800 μg/kg, day 5)","platelet count versus control (platelet count [2]; all treated groups (50, 200 and 800 μg/kg), day 7)",platelet increasing action (platelet count [3]),in vitro colony formation by CFU-GM [4],in vitro colony formation by BFU-E [5]
"human PTH(1-84) (protein, UniProt P01270 32-115, looked up, Parathyroid hormone) Parathyroid hormone: SVSEIQLMHNLGKHLNSMERVEWLRKKLQDVHNFVALGAPLAPRDAGSQRPRKKEDNVLVESHEKSLGEADKADVNVLTKAKSQ",two to four times as great as the initial value,substantially returned to the initial level,significant increase in platelet counts over the control,tendency to increase,significantly higher in platelet count than the control,platelet increasing action,,
"parathyroid hormone (PTH): PTH as studied in the literature report by Meytes et al; form and species not printed (protein, UniProt P01270 32-115, looked up, Parathyroid hormone) Parathyroid hormone: SVSEIQLMHNLGKHLNSMERVEWLRKKLQDVHNFVALGAPLAPRDAGSQRPRKKEDNVLVESHEKSLGEADKADVNVLTKAKSQ",,,,,,,interfered with the in vitro colony formation,interfered with the in vitro colony formation
